# Source: PMC6146289, “Combinatorial use of disulfide bridges and native sulfur-SAD phasing for rapid structure determination of coiled-coils” (Bioscience Reports, 2018)
# B1: HsCEP135 82–144 (amino acids 82–144 of human CEP135, centrosomal protein of 135 kDa) (domain or fragment, UniProt Q66GS9 82-144, looked up)
# chain: NNELYLELMKLREHSDQHVKELKTSLKKCARETADLKFLNNQYAHKLKLLEKESKAKNERIQQ
# notes: coiled-coil fragment with one cysteine (Cys110) and one methionine per monomer; Under oxidizing conditions Cys110 forms a homotypic disulfide bridge between the two chains of the parallel coiled-coil dimer; Calculated molecular weight 7.71 kDa
# Molecular target: the molecule itself
# Test: SEC-MALS; oxidizing conditions: 20 mM Tris-HCl, pH 7.5, 150 mM NaCl, without DTT; S-200 10/30 column; 100 μl at 4 mg/ml injected; 10°C
protein,measurement,value
B1,stoichiometry N,2
